Measurements taken from PMC5653234.

Legend:
[1] = biological target: MBP-AKAP79 (A-kinase anchoring protein 79) with C-terminal 10x His-tag (human) (UniProt P24588); assay: SEC-MALS; 500 μL purified complex (~2 mg/mL) on a WTC-050S5 SEC column at 0.5 mL/min, in-line refractometer and light scattering
[2] = biological target: His-tagged AKAP79 N-terminal fragment encompassing the LKIP motif (human) (UniProt P24588); assay: AlphaScreen or HTRF; competition: 100 nM biotinylated PP2B and 100 nM His-tagged AKAP79 or fragment, serial dilutions of untagged PP2B; streptavidin donor and nickel acceptor beads; 25 mM HEPES, pH 7.5, 100 mM NaCl, 0.1% BSA, 3 mM CaCl2, 2 μg/mL CaM; one-site IC50 fit taken to approximate the Kd
[3] = biological target: His-tagged AKAP79 C-terminal fragment (PIAIIIT region) (human) (UniProt P24588); assay: as above
[4] = biological target: MBP-AKAP79 (A-kinase anchoring protein 79) with C-terminal 10x His-tag (human) (UniProt P24588); assay: as above
[5] = biological target: AKAP79-CaNAR (full-length AKAP79 fused to the N-terminus of CaNAR2pax) (human) (UniProt P24588)
[6] = biological target: AKAP79∆L-CaNAR (AKAP79 lacking residues 122-136 fused to CaNAR2pax) (human) (UniProt P24588)

stoichiometry N [1]	Kd [2]	Kd [3]	Kd [4]	time to half maximal YFP/CFP FRET response of the reporter after 1 μM ionomycin (HeLa cells) [5]	time to half maximal YFP/CFP FRET response of the reporter after 1 μM ionomycin (HeLa cells) [6]	Substance
1	81 µM	5.6 µM	12 µM	–	–	PP2B holoenzyme (calcium/calmodulin-dependent protein phosphatase 2B; A and B subunits), untagged (from UniProt Q08209 1-521; P63098 1-170) (complex)
–	–	–	–	3.58 min	2.41 min	PP2B, endogenous in HEK293 cells (from UniProt Q08209 1-521; P63098 1-170) (complex)
1	–	–	–	–	–	calmodulin (CaM) (from UniProt P0DP23 1-149) (natural protein; other documents disagree on this pair)
